# Test results taken from FireProtDB (doi:10.1016/j.jmb.2005.09.061).
# “And” between values parts separate entries of the source, which are not always exact repeats. Identical values can stand only once.
# B1: Alpha-lactalbumin wild type, P00712 (protein)
# chain: MMSFVSLLLVGILFHATQAEQLTKCEVFQKLKDLKDYGGVSLPEWVCTAFHTSGYDTQAIVQNNDSTEYGLFQINNKIWCKDDQNPHSRNICNISCDKFLDDDLTDDIVCAKKILDKVGINYWLAHKALCSEKLDQWLCEKL
# Conditions: Capra hircus, pH 7, Thermal, CD, sodium cacodylate 50 mM, NaCl 50 mM, reversible: Yes, whole UniProt chain shown
protein,measurement,setting,value
B1,heat capacity change of unfolding,59 °C,1.8 kcal/mol/K
same,unfolding free energy,59 °C,0 kcal/mol
same,heat capacity change of unfolding,,1.8 kcal/mol/K
same,unfolding enthalpy (van 't Hoff),,85.1 kcal/mol and 69.5 kcal/mol
